The values below come from patent publication US20110150884A1 (ST VINCENT S INSTITUTE OF MEDICAL RESEARCH, published 2011).

First the molecules themselves.
B2: sβc N346Q, soluble extracellular domain of human βc with the third N-glycosylation site removed (receptor, UniProt P32927 17-443, looked up)
chain: WERSLAGAEETIPLQTLRCYNDYTSHITCRWADTQDAQRLVNVTLIRRVNEDLLEPVSCDLSDDMPWSACPHPRCVPRRCVIPCQSFVVTDVDYFSFQPDRPLGTRLTVTLTQHVQPPEPRDLQISTDQDHFLLTWSVALGSPQSHWLSPGDLEFEVVYKRLQDSWEDAAILLSNTSQATLGPEHLMPSSTYVARVRTRLAPGSRLSGRPSKWSPEVCWDSQPGDEAQPQNLECFFDGAAVLSCSWEVRKEVASSVSFGLFYKPSPDAGEEECSPVLREGLGSLHTRHHCQIPVPDPATHGQYIVSVQPRRAEKHIKSSVNIQMAPPSLQVTKDGDSYSLRWETMKMRYEHIDHTFEIQYRKDTATWKDSKTETLQNAHSMALPALEPSTRYWARVRVRTSRTGYNGIWSEWSEARSWDTESVLPMW
modifications: N-linked carbohydrate at Asn58 (NAG-NAG-MAN) and Asn191 (NAG)
notes: extracellular domain; Intertwined homodimer; Cloned into pIBV5-His; also called sβc ΔN3; GM-CSF βc chain

The target in data set [1] is IL-3 receptor on cells: IL3Rα co-expressed with the βc4 Gpoly-A mutant (M7-βc) (human), P26951. The data set can be described thus: cell-based or functional assay.
Data set [2] concerns the molecule itself. Description: X-ray crystal structure, 3.3 Å. The protocol: (§1) The structure was determined by molecular replacement using the method of Storoni et al, Acta Crystallogr. D 60:432, 2004.
(§2) A homology model of domain 2 of the alpha chain was built into this density. […] D Biol. Crystallogr. 50:760, 1994 and refinement using the method of Murshudov et al, Acta Crystallogr. D 53:240, 1997. […] During the final refinement step each subunit was treated as a rigid body for the purposes of TLS (translation, libration and screw rotation tensors) refinement to account for overall differences in displacements between the molecules and anisotropy in the data (Winn et al, Acta Crystallogr. D 57:122, 2001; Painter and Merritt, Acta Crystallogr. D 62:439, 2006).

Data set [3] concerns the target T1, wild-type sβc, soluble extracellular domain of human βc (human, UniProt P32927 17-443).
T1 construct: extracellular domain; Expressed in Sf21 cells
T1 sequence (looked up): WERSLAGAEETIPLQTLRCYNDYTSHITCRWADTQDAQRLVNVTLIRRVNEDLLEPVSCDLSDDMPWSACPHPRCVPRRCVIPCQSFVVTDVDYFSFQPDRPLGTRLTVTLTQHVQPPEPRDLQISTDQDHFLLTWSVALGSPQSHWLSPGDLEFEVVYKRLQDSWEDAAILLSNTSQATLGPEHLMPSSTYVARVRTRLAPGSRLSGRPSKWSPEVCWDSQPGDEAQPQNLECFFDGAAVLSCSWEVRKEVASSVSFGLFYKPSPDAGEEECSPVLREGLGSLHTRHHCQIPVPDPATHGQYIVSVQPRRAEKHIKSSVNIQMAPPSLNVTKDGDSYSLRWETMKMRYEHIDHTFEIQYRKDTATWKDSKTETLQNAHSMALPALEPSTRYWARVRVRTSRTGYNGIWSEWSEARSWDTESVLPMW
Description: ternary complex formation of soluble proteins (all three present); wild type as the reference.

The target in data set [4] is B2. Description: X-ray crystal structure, 3.3 Å. The protocol: as §1, §2

IL-3 receptor on cells: IL3Rα co-expressed with the βc4 Gpoly-A mutant (M7-βc) (human), P26951, sequence (P26951 19-378, change not shown): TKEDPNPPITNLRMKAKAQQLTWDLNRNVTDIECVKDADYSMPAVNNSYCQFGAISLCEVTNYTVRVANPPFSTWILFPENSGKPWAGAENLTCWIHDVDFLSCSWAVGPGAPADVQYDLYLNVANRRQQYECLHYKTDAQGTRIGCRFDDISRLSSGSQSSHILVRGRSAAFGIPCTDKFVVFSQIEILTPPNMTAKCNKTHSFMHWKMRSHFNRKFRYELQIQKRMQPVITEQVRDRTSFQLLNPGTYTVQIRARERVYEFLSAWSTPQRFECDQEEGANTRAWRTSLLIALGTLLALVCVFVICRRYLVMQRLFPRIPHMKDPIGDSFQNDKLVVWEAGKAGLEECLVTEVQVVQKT

B1: IL-3, P08700 20-152 (ligand, UniProt P08700 20-152, looked up)
chain: APMTQTTPLKTSWVNCSNMIDEIITHLKQPPLPLLDFNNLNGEDQDILMENNLRRPNLEAFNRAVKSLQNASAIESILKNLLPCLPLATAAPTRHPIHIKDGDWNEFRRKLTFYLKTLENAQAQQTTLSLAIF
modifications: here or on the partner: radio-iodinated (125I) in the COS cell binding assays
In data set [1], B1 registered an ED50 of proliferation of CTL-EN cells in response to IL-3 of 0.0103 µg/mL and a fold increase of ED50 against wild type βc of 413 fold.
On to B2, for which the binding result in data set [2] is recorded as “binds”.

B3: sGM-CSFRα, soluble extracellular domain of the GM-CSF receptor alpha chain, expressed in Sf21 insect cells (receptor, human, UniProt P15509 23-320, looked up)
chain: EKSDLRTVAPASSLNVRFDSRTMNLSWDCQENTTFSKCFLTDKKNRVVEPRLSNNECSCTFREICLHEGVTFEVHVNTSQRGFQQKLLYPNSGREGTAAQNFSCFIYNADLMNCTWARGPTAPRDVQYFLYIRNSKRRREIRCPYYIQDSGTHVGCHLDNLSGLTSRNYFLVNGTSREIGIQFFDSLLDTKKIERFNPPSNVTVRCNTTHCLVRWKQPRTYQKLSYLDFQYQLDVHRKNTQPGTENLLINVSGDLENRYNFPSSEPRAKHSVKIRAADVRILNWSSWSEAIEFGSDDG
modifications: N-linked carbohydrate at Asn229 (modeled as NAG-NAG)
notes: extracellular domain; Cloned into the pIBV5-His vector; Residues 218-316 (domain 2) were traced in the crystal; also called GMRα
For the molecule B3, the binding result in data set [3] and in data set [4] was “binds” throughout.
